Measured values: PMC8866119 (Nature, 2021)
Residue numbers refer to the chain shown, from its start.

B1: BD55-1237 (antibody, V domains shown)
VH: QVQLVESGGGVVQPGRSLRLSCATSDFTSNTYGIHWVRQAPGKGLEWVAVIWSDGSHEYYADSVKGRFTISRDNSKNTVYLQMASLRPEDTALYYCAKSPWLRGSFDVWGQGTVVPVSS
VL: NFLLTQPHSVSESPGKTVTISCSGSSGYIASNYVQWYQQRPGSAPIVVMYEDNQRPSGVPDRFSGSIDSSSNSASLTISGLKTEDEADYYCQSYDSDNRAWVFGGGTKLTVL
B2: COVA1-16 (antibody, V domains shown)
VH: QVQLVQSGAEVKKPGASVKVSCKASGYTFTSYYMHWVRQAPGQGLEWMGIINSSGGSTSYAQKFQGRVTMTRDTSTSTVYMELSSLRSEDTAVYYCARPPRNYYDRSGYYQRAEYFQHWGQGTLVTVSS
VL: DIQLTQSPSSLSASVGDRVTITCQASQDISNYLNWYQQRPGKAPKLLIYDASNLETGVPSRFSGSGSGTDFTFTISSLQPEDIATYYCQQYDNPPLTFGGGTKLEIK
B3: BD-801 (antibody, V domains shown)
VH: DVQLVESGGGLVQPGGSRRLSCAASGFMFSSYWMNWVRQAPGKGLEWVASIKEDGSEKYYVDSVKGRFTISRDNAKNSLFLQMNSLRAEDTAVYYCARKCRGYYDRSGYYYKCAFDIWGQGTMVTVSS
VL: PYVLTQPPSVSVAPGKTARITCGGNNLGTNSVHWYQQKPGQAPVLVMYYDSDRPSGIPERFSGSNSGNTATLTISRVDAGDEADYYCQVWDSSSDHWVFGGGTKLTVL
B4: BD55-5259 (antibody, V domains shown)
VH: QITLKESGPTLVKPTQTLTLTCTFSGFSLTMPEVGVAWVRQPPGKALEWLALIYGDDNKRYSPSLESRLTITKDSSKNQVVLTMTNLDSVDTATYYCARRKFLWDSDPVAFDYWGLGTLVIVSS
VL: DIVMTQTPLSLPVTLGQPASISCRSSQSLVHIDGNIYLSWLQQRPGQPPRLLIYKISNRFSGVPDRFSGSGSGTDFTLKISRVEAEDVGVYYCMQATQFPHEMYTFGQGTKLEIR
B5: COV2-2828 (antibody, V domains shown)
VH: EVQLVESGGGLVKPGGSLRLSCAASGFTFRDYSMNWVRQAPGKGLEWVSSISSGGSYIYYADSVKGRFTISRDNAKNSLYLQMNSLRAEDTAVYYCARGGSILWWLIDYWGQGTLVTVSS
VL: NFMLTQPHSVSESPGKTVTISCTGSSGSIASNYVQWYQQRPGSAPTTVIYEDNQRPSGVPDRFSGSIDSSSNSASLTISGLKTEDEADYYCQSYDSTSRVVFGGGTKLTVL
B6: DH1047 (antibody, V domains shown)
VH: QVQLVQSGAEVKKPGASVQVSCQASANTFTNHYIHWVRQAPGQGLEWMGIIYPTGGNTIYAQGFQGRVTMTRDTSLNTIYLELSSLRSEDTAVYYCARDVRVDDSWSGYDLLSGGTYFDYWGQGTLVTVSS
VL: not shown
B7: BD55-5226 (antibody, V domains shown)
VH: EVQLVESGGGLVKPGGSLRLSCAASGFTFSSYSMNWVRQAPGKGLEWVSSISMTSSYRHYADSVRGRFTISRDNANNSLFLQMNSLRAEDTAVYFCARDSNLRTGDANDYWGQGTLVTVSS
VL: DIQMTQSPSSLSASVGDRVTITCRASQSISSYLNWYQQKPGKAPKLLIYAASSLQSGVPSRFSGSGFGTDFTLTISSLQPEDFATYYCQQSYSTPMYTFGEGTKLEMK
B8: BD55-5267 (antibody, V domains shown)
VH: QVQLQESGPGLVKPSGTLSLTCAVSGGSISSSNWWSWVRQPPGKGLEWIGEIYHSGSTNYNPSLKSRVTISVDKSKNKFSLKLSSVTAADTAVYFCARAGWIESGYDAFVGYFDYWGQGTLVTVSS
VL: DIQMTQSPSSLSASVGDRVTITCRASQGISSSLAWYQQKPGKAPDLLLYAASGLESGVPSRFSGSGSGTDFTLSISSLQPEDFATYYCQQYYSPPRTFGQGTKLEIK
B9: BD-708 (antibody, V domains shown)
VH: QVQLVESGGGVVQPGRSLRLSCAASGFTLSNYAMHWVRQAPGTGLEWVAVISDDGSIKFYADSVKGRFTISRDNSKNTLYLQMNSLRAEDTAVYYCARDGDDSSGYFFDYWGQGTLVTVSS
VL: DIQMTQSPSSLSASVGDRVTITCRASQGINNFLAWYQQKPGKAPKLLLYSASRLESGVPSRFSGSGSGTDYTLTISSLQPEDFATYYCQQYYSTLALTFGGGTKVEIK
B10: BD55-3304 (antibody, V domains shown)
VH: QVQLVESGGGVVQPERSLRLSCAASGFIFSNYGMHWVRQAPGKGLEWVALIWYDGSNRYYADSVKGRFTISRDNSRNTLYLQMNSLRAEDTAMYYCAKSALRGYSGYDFFSRVSDEYYFDNWGQGTLVTVSS
VL: DIVMTQSPDSLAVSLGERATISCKSSQSVLYSSNNQNYLAWYQQKPGQPPKLLIKWASTRESGVPDRFSGSGSGTDFTLTITSLQAEDVAVYYCQQYFDTPHFGQGTKLEIK
B11: DH1045 (antibody, V domains shown)
VH: QLQLQESGPGLVKPSETLSLTCTVSGGSISSSGYYWGWIRQPPGKGLEWIGTIYYGGSTYYSPSLKSRVTISVDTSKNQFSLKLSSVTAADTAVYYCASQQWLRGNFDYWGQGTLVTVSS
VL: B5 VL with T97S, S98T, R99Y, V100W

Target: SARS-CoV-2 Omicron (B.1.1.529) RBD (SARS-CoV-2 Omicron B.1.1.529 (BA.1), strain)

Binder	binding result
B1	binds
B2	binds
B3	binds
B4	binds
B5	binds
B6	binds
B7	binds
B8	binds
B9	binds
B10	binds
B11	binds
